# Laboratory results taken from the supplement of paper PMC10724198.
# ± gives the standard deviation of the averaged measurements.
# Tested on: Saccharomyces cerevisiae
# Test: protein stability index of tFT-peptide fusion (C-terminal peptide) (PSI (0-1 scale)); higher = more stable (slower turnover)
# Conditions: genetic background: das1 deletion; temperature: 37 C
# Experimental: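 MPS profiling in S. cerevisiae of the tFT-X12 degron library: putative degron peptides plus stable controls, 12 aa, fused to the C-terminus of a sfGFP-mCherry timer. Cells are FACS-sorted into 8 mCherry/sfGFP bins and deep-sequenced. PSI runs from 0 (unstable) to 1 (stable). Backgrounds are wild type, das1Δ and doa10Δ at 30 °C, and wild type, das1Δ, cdc34-1 and cdc53-1 at 37 °C; 2-3 technical replicates each.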
# 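Note: PSI is a weighted mean of sequencing reads over stability bins, variants kept only with over 10 reads, mCherry proximal and sfGFP distal, peptide attached via GGGS linker.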
row,Sequence,protein stability index
1,FCCFFVHMSFFL,0.45 ± 0.0054
2,FCFLLLVSFFFV,0.388 ± 0.0052
3,FCICRFLFIFLG,0.4917 ± 0.0036
4,FCIFAMQICTSA,0.221 ± 0.0074
5,FCSPFFFFLFRL,0.4269 ± 0.003
6,FFFLPLFLVLSL,0.378 ± 0.0094
7,FFGFYLKFVWCG,0.516 ± 0.0079
8,FFPSFGLFLCPV,0.5001 ± 0.0015
9,FFSRIIAILVLM,0.515 ± 0.016
10,FFVEKRVFFGII,0.738 ± 0.029
11,FFVMVFTVEVFV,0.167 ± 0.01
12,FFVWLGWGMFYG,0.561 ± 0.0085
13,FGALVVCFLTRC,0.519 ± 0.007
14,FGGFYGRRVLII,0.6748 ± 0.0054
15,FGGYLRAGVFLT,0.721 ± 0.0034
16,FGPVLLVSFLFS,0.422 ± 0.027
17,FGVRRSFVVFVV,0.556 ± 0.0058
18,FHLFIRRSAVIF,0.555 ± 0.023
19,FILFSEMFASSV,0.149 ± 0.02
20,FLCIFFFFLISF,0.32 ± 0.004
21,FLCLLSLFFLDF,0.626 ± 0.036
22,FLFCACIRVFSY,0.228 ± 0.0087
23,FLFSSLFCFLFL,0.565 ± 0.029
24,FLLLVFGLLIDS,0.413 ± 0.022
25,FLLYRFSLVGCF,0.194 ± 0.011
26,FLLYVITYRSET,0.442 ± 0.047

row,Sequence,protein stability index
1,FLPLLFFFFFRF,0.4846 ± 0.0032
2,FLPSLSLPLLLF,0.573 ± 0.015
3,FLSLVIVLRWFL,0.381 ± 0.01
4,FLWAVSLCRSLV,0.662 ± 0.015
5,FMRKLVVLVVLG,0.4342 ± 0.0023
6,FMVYRIHSSAVM,0.149 ± 0.006
7,FPGPPSPPPSYF,0.766 ± 0.0078
8,FPVWTALLTVRA,0.259 ± 0.0096
9,FRCRFLLPFYSV,0.733 ± 0.01
10,FRLCQRPVFLLS,0.676 ± 0.0091
11,FSCSRNVLVTVV,0.344 ± 0.0087
12,FSFPIIFFGMFL,0.542 ± 0.006
13,FSFSFWALLWFP,0.531 ± 0.0093
14,FSFVVRMFFRIL,0.408 ± 0.022
15,FSLSLFPYPFSL,0.765 ± 0.011
16,FSSFLGFIRFFV,0.751 ± 0.016
17,FTLFFVASVLDL,0.53241 ± 0.00048
18,FVGLFEYILLFV,0.358 ± 0.0079
19,FVLLTFLFFWQF,0.476 ± 0.019
20,FVLWYFCCVGCM,0.366 ± 0.011
21,FVRCFWPFVFVF,0.332 ± 0.0095
22,FVRGWGIVFSLA,0.594 ± 0.015
23,FVWWFFFLSVVS,0.3987 ± 0.0029
24,FWILLRVLIFVL,0.321 ± 0.0095
25,FYFMGFFFGLGM,0.617 ± 0.057
26,FYLFPSLPLLLL,0.544 ± 0.03

row,Sequence,protein stability index
1,FYLSFWFLIFFF,0.353 ± 0.029
2,GCCFVCSVFWWG,0.528 ± 0.0081
3,GCWRVELLVFMC,0.33 ± 0.015
4,GDFYCSSVVLVV,0.484 ± 0.018
5,GEGISCLLRRLT,0.713 ± 0.036
6,GFLAVTVACVWR,0.258 ± 0.013
7,GFLWFCGVPVGW,0.72 ± 0.027
8,GFVSLFRLFIRL,0.4652 ± 0.0042
9,GGGHGSSCSVCD,0.69544 ± 0.00064
10,GGGWGVFVVLWW,0.4026 ± 0.0031
11,GGIVLLVRVCGP,0.6149 ± 0.0012
12,GGLLSQLLRSIG,0.743 ± 0.0075
13,GGRWRRRGFFFS,0.709 ± 0.026
14,GGYCQMFFLYFR,0.0948 ± 0.0031
15,GHHLRVRVILTA,0.47 ± 0.013
16,GICLVLVSDIWI,0.599 ± 0.018
17,GIGYMFLNVWLV,0.4208 ± 0.00089
18,GKGVFGGLFFLV,0.755 ± 0.013
19,GLGLIRTSRLLC,0.718 ± 0.0034
20,GLLAFVCISHTS,0.575 ± 0.019
21,GLPRRFLLLSVV,0.508 ± 0.015
22,GPHATYLYLVLA,0.34 ± 0.0059
23,GPRRARLPNFLA,0.715 ± 0.018
24,GQSRLVADLRQV,0.678 ± 0.018
25,GRGFVLSVAVVA,0.502 ± 0.0094
26,GRVCWVVLAGLV,0.6202 ± 0.0013

# Same assay, conditions: genetic background: doa10 deletion; temperature: 30 C
row,Sequence,protein stability index
1,FCCFFVHMSFFL,0.2646 ± 0.00099
2,FCFLLLVSFFFV,0.211 ± 0.011
3,FCICRFLFIFLG,0.3325 ± 0.0029
4,FCIFAMQICTSA,0.084 ± 0.015
5,FCSPFFFFLFRL,0.469 ± 0.0056
6,FFFLPLFLVLSL,0.486 ± 0.03
7,FFGFYLKFVWCG,0.146 ± 0.015
8,FFPSFGLFLCPV,0.381 ± 0.013
9,FFSRIIAILVLM,0.135 ± 0.011
10,FFVEKRVFFGII,0.197 ± 0.013
11,FFVMVFTVEVFV,0.0639 ± 0.011
12,FFVWLGWGMFYG,0.408 ± 0.0042
13,FGALVVCFLTRC,0.289 ± 0.02
14,FGGFYGRRVLII,0.182 ± 0.0081
15,FGGYLRAGVFLT,0.388 ± 0.039
16,FGPVLLVSFLFS,0.19 ± 0.016
17,FGVRRSFVVFVV,0.0834 ± 0.011
18,FHLFIRRSAVIF,0.3488 ± 0.0019
19,FILFSEMFASSV,0.28 ± 0.015
20,FLCIFFFFLISF,0.346 ± 0.023
21,FLCLLSLFFLDF,0.462 ± 0.034
22,FLFCACIRVFSY,0.125 ± 0.0033
23,FLFSSLFCFLFL,0.571 ± 0.018
24,FLLLVFGLLIDS,0.188 ± 0.017
25,FLLYRFSLVGCF,0.0828 ± 0.021
26,FLLYVITYRSET,0.161 ± 0.0042

row,Sequence,protein stability index
1,FLPLLFFFFFRF,0.569 ± 0.012
2,FLPSLSLPLLLF,0.376 ± 0.036
3,FLSLVIVLRWFL,0.298 ± 0.021
4,FLWAVSLCRSLV,0.178 ± 0.017
5,FMRKLVVLVVLG,0.1923 ± 0.0019
6,FMVYRIHSSAVM,0.265 ± 0.028
7,FPGPPSPPPSYF,0.6435 ± 0.0011
8,FPVWTALLTVRA,0.14 ± 0.024
9,FRCRFLLPFYSV,0.403 ± 0.013
10,FRLCQRPVFLLS,0.182 ± 0.0059
11,FSCSRNVLVTVV,0.178 ± 0.015
12,FSFPIIFFGMFL,0.426 ± 0.019
13,FSFSFWALLWFP,0.48 ± 0.031
14,FSFVVRMFFRIL,0.0869 ± 0.019
15,FSLSLFPYPFSL,0.686 ± 0.01
16,FSSFLGFIRFFV,0.286 ± 0.018
17,FTLFFVASVLDL,0.358 ± 0.007
18,FVGLFEYILLFV,0.263 ± 0.0056
19,FVLLTFLFFWQF,0.287 ± 0.007
20,FVLWYFCCVGCM,0.196 ± 0.015
21,FVRCFWPFVFVF,0.139 ± 0.0072
22,FVRGWGIVFSLA,0.225 ± 0.012
23,FVWWFFFLSVVS,0.255 ± 0.016
24,FWILLRVLIFVL,0.182 ± 0.0047
25,FYFMGFFFGLGM,0.481 ± 0.016
26,FYLFPSLPLLLL,0.477 ± 0.023

row,Sequence,protein stability index
1,FYLSFWFLIFFF,0.325 ± 0.036
2,GCCFVCSVFWWG,0.327 ± 0.014
3,GCWRVELLVFMC,0.053 ± 0.02
4,GDFYCSSVVLVV,0.278 ± 0.014
5,GEGISCLLRRLT,0.2625 ± 0.00058
6,GFLAVTVACVWR,0.13 ± 0.014
7,GFLWFCGVPVGW,0.613 ± 0.031
8,GFVSLFRLFIRL,0.405 ± 0.024
9,GGGHGSSCSVCD,0.646 ± 0.013
10,GGGWGVFVVLWW,0.194 ± 0.0027
11,GGIVLLVRVCGP,0.389 ± 0.0083
12,GGLLSQLLRSIG,0.2341 ± 0.0008
13,GGRWRRRGFFFS,0.627 ± 0.0095
14,GGYCQMFFLYFR,0.575 ± 0.021
15,GHHLRVRVILTA,0.16006 ± 0.00015
16,GICLVLVSDIWI,0.374 ± 0.04
17,GIGYMFLNVWLV,0.0963 ± 0.011
18,GKGVFGGLFFLV,0.182 ± 0.0027
19,GLGLIRTSRLLC,0.148 ± 0.027
20,GLLAFVCISHTS,0.312 ± 0.0026
21,GLPRRFLLLSVV,0.11 ± 0.016
22,GPHATYLYLVLA,0.1579 ± 0.00054
23,GPRRARLPNFLA,0.0795 ± 0.025
24,GQSRLVADLRQV,0.676 ± 0.035
25,GRGFVLSVAVVA,0.363 ± 0.0089
26,GRVCWVVLAGLV,0.307 ± 0.01
